B1: EGF: growth factor stimulus (protein, UniProt P01133 23-1207, looked up)
Pro-epidermal growth factor: PQHWSCPEGTLAGNGNSTCVGPAPFLIFSHGNSIFRIDTEGTNYEQLVVDAGVSVIMDFHYNEKRIYWVDLERQLLQRVFLNGSRQERVCNIEKNVSGMAINWINEEVIWSNQQEGIITVTDMKGNNSHILLSALKYPANVAVDPVERFIFWSSEVAGSLYRADLDGVGVKALLETSEKITAVSLDVLDKRLFWIQYNREGSNSLICSCDYDGGSVHISKHPTQHNLFAMSLFGDRIFYSTWKMKTIWIANKHTGKDMVRINLHSSFVPLGELKVVHPLAQPKAEDDTWEPEQKLCKLRKGNCSSTVCGQDLQSHLCMCAEGYALSRDRKYCEDVNECAFWNHGCTLGCKNTPGSYYCTCPVGFVLLPDGKRCHQLVSCPRNVSECSHDCVLTSEGPLCFCPEGSVLERDGKTCSGCSSPDNGGCSQLCVPLSPVSWECDCFPGYDLQLDEKSCAASGPQPFLLFANSQDIRHMHFDGTDYGTLLSQQMGMVYALDHDPVENKIYFAHTALKWIERANMDGSQRERLIEEGVDVPEGLAVDWIGRRFYWTDRGKSLIGRSDLNGKRSKIITKENISQPRGIAVHPMAKRLFWTDTGINPRIESSSLQGLGRLVIASSDLIWPSGITIDFLTDKLYWCDAKQSVIEMANLDGSKRRRLTQNDVGHPFAVAVFEDYVWFSDWAMPSVMRVNKRTGKDRVRLQGSMLKPSSLVVVHPLAKPGADPCLYQNGGCEHICKKRLGTAWCSCREGFMKASDGKTCLALDGHQLLAGGEVDLKNQVTPLDILSKTRVSEDNITESQHMLVAEIMVSDQDDCAPVGCSMYARCISEGEDATCQCLKGFAGDGKLCSDIDECEMGVPVCPPASSKCINTEGGYVCRCSEGYQGDGIHCLDIDECQLGEHSCGENASCTNTEGGYTCMCAGRLSEPGLICPDSTPPPHLREDDHHYSVRNSDSECPLSHDGYCLHDGVCMYIEALDKYACNCVVGYIGERCQYRDLKWWELRHAGHGQQQKVIVVAVCVVVLVMLLLLSLWGAHYYRTQKLLSKNPKNPYEESSRDVRSRRPADTEDGMSSCPQPWFVVIKEHQDLKNGGQPVAGEDGQAADGSMQPTSWRQEPQLCGMGTEQGCWIPVSSDKGSCPQVMERSFHMPSYGTQTLEGGVEKPHSLLSANPLWQQRALDPPHQMELTQ
modifications: Pro-epidermal growth factor
notes: growth factor stimulus
B2: NGF: growth factor stimulus of PC12 cells (protein, UniProt P25427 122-241, looked up)
Beta-nerve growth factor: SSTHPVFHMGEFSVCDSVSVWVGDKTTATDIKGKEVTVLGEVNINNSVFKQYFFETKCRAPNPVESGCRGIDSKHWNSYCTTTHTFVKALTTDDKQAAWRFIRIDTACVCVLSRKAARRG
modifications: Beta-nerve growth factor
notes: growth factor stimulus of PC12 cells

How the values were obtained:
PYK-2 = experiment: Tyrosine phosphorylation of PYK-2 in NIH3T3 cell lines that overexpress PYK-2; assay type: cell-based, mouse; details: NIH3T3 cells overexpressing PYK-2 / PYK-2-HA; TPA 6 μM, 15 min at 37° C.
Protocol: Stable cell lines of NIH3T3 that overexpress PYK2 were established by contransfection of PYK2 subcloned into pLSV together with pSV2neo utilizing lipofectamine reagent (GIBCO BRL). Following transfection the cells were grown in Dulbecco's modified Eagle's medium containing 10% fetal bovine serum and 1 mg/ml G418. Transient transfections into 293 cells were performed by using the calcium phosphate technique (*).
The PYK-2 cDNA cloned in PLSV was cotransfected with pSV2neo into PC12 cells and NIH3T3 in order to establish stable cell lines. G418 resistant colonies were screened by immunoprecipitating and immunoblotting.
NIH3T3 cell lines were established that overexpress the PYK-2 and the PYK-2-HA protein. […] The level of phosphorylation is not so high.

Shc = experiment: Tyrosine phosphorylation of Shc in stimulated PC12 cells (anti-Shc immunoprecipitation, anti-phosphotyrosine immunoblot); assay type: cell-based, rat
Protocol: Tyrosine phosphorylation of Shc in response to bradykinin, carbachol, PMA and other stimuli was also measured. Quiescent PC12 cells were stimulated for 5 min at 37° C. with bradykinin (1AM), carbachol (1 mM), KC1 (75 mM), PMA (1.6pM), NGF (100 ng/ml), or left unstimulated (−). The cells were also stimulated with carbachol (1 mM) or potassium chloride (75 mM) in the presence of 3 mM EGTA. Stimulations with DMPP (100 μM) or muscarine (1 mM) were preformed under the same conditions. […] The Shc proteins were immunoprecipitated with anti-Shc antibodies, the immunoprecipitates were resolved by SDS-PAGE (8%1, transferred to nitrocellulose and immunoblotted with anti-phosphotyrosine antibodies.

Molecule	tyrosine phosphorylation of PYK-2 in response to the agent (PYK-2)	duration of stimulation of Shc phosphorylation after addition (Shc)	tyrosine phosphorylation of Shc in response to the agent (Shc)
B1	undergoes tyrosine phosphorylation	–	–
B2	–	five	induced persistent stimulation of Shc phosphorylation

Source: patent publication US20040005648A1, “PYK2 related products and methods” (Sugen, Inc., priority 1994, published 2004)
